Series [1] deals with HeLa Kyoto. The experiment in a line: solubility in G1/S (NP-40 vs SDS abundance) (log2 ratio); higher = more soluble. Conditions: cell cycle stage: G1/S.
Series [2] deals with HeLa Kyoto. The series can be described thus: solubility change mitosis vs G1/S (difference of NP-40 vs SDS log2 ratios) (log2 ratio difference); higher = more soluble in mitosis.

Four sequences from the supplement of paper PMC5998384 can be followed below.
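Wherever solubility change mitosis vs G1/S (difference of NP-40 vs SDS log2 ratios) is given: synchronized HeLa Kyoto cells (double thymidine block for G1/S, nocodazole release for mitosis), protein amounts in NP-40 versus SDS lysates quantified by mass spectrometry, three biological replicates.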
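Wherever solubility in G1/S (NP-40 vs SDS abundance) is given: HeLa Kyoto cells arrested at G1/S by double thymidine block, proteins quantified by TMT10plex mass spectrometry in mild NP-40 versus SDS extracts, three biological replicates.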

In the case of “MDKNIGEQLNKAYEAFRQACMDRDSAVKELQQKTENYEQRIREQQEQLSLQQTIIDKLKSQLLLVNSTQDNNYGCVPLLEDSETRKNNLTLDQPQDKVISGIAREKLPKVRRQEVSSPRKETSARSLGSPLLHERGNIEKTFWDLKEEFHKICMLAKAQKDHLSKLNIPDTATETQCSVPIQCTDKTDKQEALFKPQAKDDINRGAPSITSVTPRGLCRDEEDTSFESLSKFNVKFPPMDNDSTFLHSTPERPGILSPATSEAVCQEKFNMEFRDNPGNFVKTEETLFEIQGIDPIASAIQNLKTTDKTKPSNLVNTCIRTTLDRAACLPPGDHNALYVNSFPLLDPSDAPFPSLDSPGKAIRGPQQPIWKPFPNQDSDSVVLSGTDSELHIPRVCEFCQAVFPPSITSRGDFLRHLNSHFNGET [TANK]”, in series [1], the “solubility in G1/S (log2)” value was -0.138. For the same sequence, the “solubility change mitosis (log2)” value in series [2] was -0.0338.

Regarding “MDPPAVVAESVSSLTIADAFIAAGESSAPTPPRPALPRRFICSFPDCSANYSKAWKLDAHLCKHTGERPFVCDYEGCGKAFIRDYHLSRHILTHTGEKPFVCAANGCDQKFNTKSNLKKHFERKHENQQKQYICSFEDCKKTFKKHQQLKIHQCQHTNEPLFKCTQEGCGKHFASPSKLKRHAKAHEGYVCQKGCSFVAKTWTELLKHVRETHKEEILCEVCRKTFKRKDYLKQHMKTHAPERDVCRCPREGCGRTYTTVFNLQSHILSFHEESRPFVCEHAGCGKTFAMKQSLTRHAVVHDPDKKKMKLKVKKSREKRSLASHLSGYIPPKRKQGQGLSLCQNGESPNCVEDKMLSTVAVLTLG [GTF3A]”, the “solubility in G1/S (log2)” value in series [1] was -0.869. Further, in series [2], the “solubility change mitosis (log2)” value amounted to 0.0516.

Consider “MDRFLVKGAQGGLLRKQEEQEPTGEEPAVLGGDKESTRKRPRREAPGNGGHSAGPSWRHIRAEGLDCSYTVLFGKAEADEIFQELEKEVEYFTGALARVQVFGKWHSVPRKQATYGDAGLTYTFSGLTLSPKPWIPVLERIRDHVSGVTGQTFNFVLINRYKDGCDHIGEHRDDERELAPGSPIASVSFGACRDFVFRHKDSRGKSPSRRVAVVRLPLAHGSLLMMNHPTNTHWYHSLPVRKKVLAPRVNLTFRKILLTKK [ALKBH2]”, for which the “solubility in G1/S (log2)” value in series [1] was found to be 0.0785. Besides, in series [2], the “solubility change mitosis (log2)” value was 0.0123.

For the sequence “MDSLDHMLTDPLELGPCGDGHGTRIMEDCLLGGTRVSLPEDLLEDPEIFFDVVSLSTWQEVLSDSQREHLQQFLPQFPEDSAEQQNELILALFSGENFRFGNPLHIAQKLFRDGHFNPEVVKYRQLCFKSQYKRYLNSQQQYFHRLLKQILASRSDLLEMARRSGPALPFRQKRPSPSRTPEEREWRTQQRYLKVLREVKEECGDTALSSDEEDLSSWLPSSPARSPSPAVPLRVVPTLSTTDMKTADKVELGDSDLKIMLKKHHEKRKHQPDHPDLLTGDLTLNDIMTRVNAGRKGSLAALYDLAVLKKKVKEKEEKKKKKIKTIKSEAEDLAEPLSSTEGVAPLSQAPSPLAIPAIKEEPLEDLKPCLGINEISSSFFSLLLEILLLESQASLPMLEERVLDWQSSPASSLNSWFSAAPNWAELVLPALQYLAGESRAVPSSFSPFVEFKEKTQQWKLLGQSQDNEKELAALFQLWLETKDQAFCKQENEDSSDATTPVPRVRTDYVVRPSTGEEKRVFQEQERYRYSQPHKAFTFRMHGFESVVGPVKGVFDKETSLNKAREHSLLRSDRPAYVTILSLVRDAAARLPNGEGTRAEICELLKDSQFLAPDVTSTQVNTVVSGALDRLHYEKDPCVKYDIGRKLWIYLHRDRSEEEFERIHQAQAAAAKARKALQQKPKPPSKVKSSSKESSIKVLSSGPSEQSQMSLSDSSMPPTPVTPVTPTTPALPAIPISPPPVSAVNKSGPSTVSEPAKSSSGVLLVSSPTMPHLGTMLSPASSQTAPSSQAAARVVSHSGSAGLSQVRVVAQPSLPAVPQQSGGPAQTLPQMPAGPQIRVPATATQTKVVPQTVMATVPVKAQTTAATVQRPGPGQTGLTVTSLPATASPVSKPATSSPGTSAPSASTAAVIQNVTGQNIIKQVAITGQLGVKPQTGNSIPLTATNFRIQGKDVLRLPPSSITTDAKGQTVLRITPDMMATLAKSQVTTVKLTQDLFGTGGNTTGKGISATLHVTSNPVHAADSPAKASSASAPSSTPTGTTVVKVTPDLKPTEASSSAFRLMPALGVSVADQKGKSTVASSEAKPAATIRIVQGLGVMPPKAGQTITVATHAKQGASVASGSGTVHTSAVSLPSMNAAVSKTVAVASGAASTPISISTGAPTVRQVPVSTTVVSTSQAGKLPTRITVPLSVISQPMKGKSVVTAPIIKGNLGANLSGLGRNIILTTMPAGTKLIAGNKPVSFLTAQQLQQLQQQGQATQVRIQTVPASHLQQGTASGSSKAVSTVVVTTAPSPKQAPEQQ [NFRKB]”, in series [1], the “solubility in G1/S (log2)” value is -0.0172. In series [2], the “solubility change mitosis (log2)” value turned out to be 0.184.
